Data as given in patent US6297019, “Recombinant polynucleotides encoding CYP7 promoter-binding factors” (Tularik Inc.).

Molecular target: T1, CPF (clone 113) (Homo sapiens)
T1 chain: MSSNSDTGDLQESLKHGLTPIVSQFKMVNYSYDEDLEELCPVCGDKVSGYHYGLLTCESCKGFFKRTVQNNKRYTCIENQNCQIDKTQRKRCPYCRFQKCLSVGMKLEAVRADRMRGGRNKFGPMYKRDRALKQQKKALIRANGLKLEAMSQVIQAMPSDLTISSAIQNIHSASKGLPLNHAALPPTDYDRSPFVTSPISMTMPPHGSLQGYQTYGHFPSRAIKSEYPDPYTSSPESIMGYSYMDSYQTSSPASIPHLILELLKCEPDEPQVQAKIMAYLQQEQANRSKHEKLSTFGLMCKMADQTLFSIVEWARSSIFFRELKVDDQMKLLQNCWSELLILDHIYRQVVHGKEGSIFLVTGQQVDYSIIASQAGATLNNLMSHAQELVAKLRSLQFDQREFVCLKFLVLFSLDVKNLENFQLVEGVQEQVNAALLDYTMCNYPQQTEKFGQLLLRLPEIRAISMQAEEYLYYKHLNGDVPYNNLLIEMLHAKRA
Experiment: EMSA; same DNA sequence as endogenous protein; exact probe not stated; complex disrupted by anti-CPF antibody
Settings: tags: TNT in vitro transcription/translation; label: 32P
Excerpt: Characterization of CPF. Clone #113 encodes a full length polypeptyde of 495 amino acids, with an in-frame stop codon 30 nucleotides upstream of the first ATG. We named the protein as CPF for CYP7 Promoter-binding Factor. […] The closest homologs of CPF are the mouse version of the family, LRH-1 (SEQ ID NOS:7, 8)and a human variant, hFTF (SEQ ID NOS:9, 10). To confirm the cloned CPF is the factor responsible for the CYP7 promoter binding activity, in vitro translated CPF was used side-by-side with the HepG2 nuclear extracts in gel shift experiments. We found in vitro translated CPF recognized the same DNA sequence as the endogenous protein does and the gel shift patterns between these two appear to be identical. Antibodies raised against a peptide containing the Ftz-F1 box were used in gel shift experiments. We found the DNA-protein complex formed either with HepG2 nuclear extracts or with in vitro translated CPF was disrupted by the specific antibody but not by preimmune serum. Furthermore, the antibody recognized a hepatic-specific cellular protein that comigrates with the in vitro translated CPF. The endogenous gene product recognized by the Ftz-F1-specific antibody is apparently hepatic specific since there is no corresponding protein in 293 cells.

B1: CYP7 promoter wild-type oligo (dsDNA)
DNA 1: TCTGATACCTGTGGACTTAGTTCAAGGCCAGTTA
DNA 2: TAACTGGCCTTGAACTAAGTCCACAGGTATCAGA
B1: binds.
